From the Human Domainome abundance scans (Beltran et al. 2025) come the findings set out here.

± gives the uncertainty stated by the source.

B1: Steroid hormone receptor ERR2, residues 100 to 176; numbered along this chain, O95718 (parent)
chain: KRLCLVCGDIASGYHYGVASCEACKAFFKRTIQGNIEYSCPATNECEITKRRRKSCQACRFMKCLKVGMLKEGVRLD
B2: E3 ubiquitin-protein ligase Midline-1, residues 172 to 214; numbered along this chain, O15344 (parent)
chain: GLMCLEHEDEKVNMYCVTDDQLICALCKLVGRHRDHQVAALSE

The first data set covers variants of B1. The data set can be described thus: abundance fitness (aPCA) (normalised: wild type 0, dead -1); higher = more abundant; growth selection in yeast, the domain comes from the species named. To be noted: Homo sapiens.
For the variant ARLCLVCGDIASGYHYGVASCEACKAFFKRTIQGNIEYSCPATNECEITKRRRKSCQACRFMKCLKVGMLKEGVRLD [K1A], the abundance fitness was -0.34 ± 0.12.

The variants in another data set derive from B2. The description is as above. To be noted: Homo sapiens.
As to GLMCLEHEDEKVNMYCVTDDQLICALCKLVGRHRDGQVAALSE [H36G], the abundance fitness was -0.516 ± 0.062.
With GLMCLEHEDEKVNMYCVTDDQLICALCKLVGRHRDAQVAALSE [H36A], the abundance fitness is -0.445 ± 0.065.
The same measure, in the same setting: the same measure for GLMCLEAEDEKVNMYCVTDDQLICALCKLVGRHRDHQVAALSE [H7A]: -0.703 ± 0.083.
On the same count and under the same terms, in the case of SLMCLEHEDEKVNMYCVTDDQLICALCKLVGRHRDHQVAALSE [G1S] it was -0.184 ± 0.11; in that of GLMCLEHEDEKVNMYCVTDDQLICAPCKLVGRHRDHQVAALSE [L26P], 0.295 ± 0.1.
Take GLMCLEHEDEKVNMYCVTDDQLICAECKLVGRHRDHQVAALSE [L26E]: the abundance fitness turned out to be 0.101 ± 0.054.
As for GLMCLEHEDEKVNMYCVTDDQLICAKCKLVGRHRDHQVAALSE [L26K], the abundance fitness was found to be 0.193 ± 0.084.
Same read-out and setting: in the case of GLMCLEHEDEKVNMYCVTDDQLICAACKLVGRHRDHQVAALSE [L26A] it was 0.083 ± 0.058; in that of GLMCLEHEDEKVNMYCVTDDQLICALCKLVGRHEDHQVAALSE [R34E], 0.063 ± 0.064.
On the same count and under the same terms, the same measure for GLMCLEHEDEKVNMYCVTDDQLICALCKLVGRHVDHQVAALSE [R34V]: -0.069 ± 0.059.
On to GLMCLEHEDEKVNMYCVTDDQLICALCKLVGRHPDHQVAALSE [R34P], for which the abundance fitness is -0.24 ± 0.085.
As for GLMCLEHEDEVVNMYCVTDDQLICALCKLVGRHRDHQVAALSE [K11V], the abundance fitness was -0.259 ± 0.059.
GLMCGEHEDEKVNMYCVTDDQLICALCKLVGRHRDHQVAALSE [L5G]: the abundance fitness is -0.092 ± 0.062.
Still for that read-out and setting: in the case of GLMCLEHEIEKVNMYCVTDDQLICALCKLVGRHRDHQVAALSE [D9I] it was 0.042 ± 0.095; in that of GLMCLEHEDEKVNGYCVTDDQLICALCKLVGRHRDHQVAALSE [M14G], 0.059 ± 0.045; in that of GLMCLEHEDEKVNMYCVTDDQLICALCKAVGRHRDHQVAALSE [L29A], 0.135 ± 0.053.
Take GLMCLEHEDEKVNMYCVTDDQLICALCKTVGRHRDHQVAALSE [L29T]: the abundance fitness worked out at 0.175 ± 0.059.
Same read-out and setting: in the case of GLMCLEHEDEKVNMYCVTDDQLICALCWLVGRHRDHQVAALSE [K28W] it was -0.149 ± 0.083; in that of GLMCLEHEDEKVNMYCVTDDQLICALCNLVGRHRDHQVAALSE [K28N], -0.042 ± 0.085.
Regarding GLMCLEHEDEKVNMKCVTDDQLICALCKLVGRHRDHQVAALSE [Y15K], the abundance fitness is 0.28 ± 0.078.
On the same count and under the same terms, in the case of GLMCLEHEDEKVNMYCVTDDQLICALCKLVGRHRDHQVAALQE [S42Q] it was -0.049 ± 0.094; in that of GLMCLEHEDEKVNMYCVTDDHLICALCKLVGRHRDHQVAALSE [Q21H], 0.231 ± 0.15; in that of GLMCLEHEDEKVNMYCITDDQLICALCKLVGRHRDHQVAALSE [V17I], 0.235 ± 0.12.
GLMCLEHEDEKVNMYCVTDDQLICALCKLKGRHRDHQVAALSE [V30K]: the abundance fitness was found to be 0.235 ± 0.083.
For the variant GLMCLEHEDEKVNMYCVTDDQLICALCKLAGRHRDHQVAALSE [V30A], the abundance fitness turned out to be 0.15 ± 0.058.
As for GLMCLEHEDEKVNMYCVTDDQLICALCKLVGAHRDHQVAALSE [R32A], the abundance fitness was determined as 0.033 ± 0.06.
With GLMCLEHEDEKVNMYCVTDDQLICALCKLVGVHRDHQVAALSE [R32V], the abundance fitness is -0.172 ± 0.065.
Regarding GLMCLEHEDEKVNMYCVTDDQLICALCKLVGTHRDHQVAALSE [R32T], the abundance fitness is 0.09 ± 0.063.
Same read-out and setting: in the case of GLMCLEHEDEKVNMYCVTDDQEICALCKLVGRHRDHQVAALSE [L22E] it was 0.377 ± 0.053.
On the same count and under the same terms, the same measure for GLHCLEHEDEKVNMYCVTDDQLICALCKLVGRHRDHQVAALSE [M3H]: 0.14 ± 0.1.
As to GLACLEHEDEKVNMYCVTDDQLICALCKLVGRHRDHQVAALSE [M3A], the abundance fitness is -0.022 ± 0.12.
GLYCLEHEDEKVNMYCVTDDQLICALCKLVGRHRDHQVAALSE [M3Y]: the abundance fitness is -0.229 ± 0.26.
The same measure, in the same setting: in the case of GLMCLEHEDEKVNMYCVTDDQLCCALCKLVGRHRDHQVAALSE [I23C] it was -0.081 ± 0.26.
Same read-out and setting: in the case of GLMCLEHEDEKVNMYKVTDDQLICALCKLVGRHRDHQVAALSE [C16K] it was -0.298 ± 0.18; in that of GLMCLEHEDEKVNMYCVTDDQLICALHKLVGRHRDHQVAALSE [C27H], -0.481 ± 0.31; in that of GLMCLEHEDEKVNMYCVTDDQLICALCKLVGRHRDHQVAQLSE [A40Q], 0.082 ± 0.095.
Still for that read-out and setting: the same measure for GLMCLEHEDEKVNMYCVTADQLICALCKLVGRHRDHQVAALSE [D19A]: -0.928 ± 0.088; for GLMCLEHEDEKVNMYCVTDVQLICALCKLVGRHRDHQVAALSE [D20V]: -0.33 ± 0.064; for GLMRLEHEDEKVNMYCVTDDQLICALCKLVGRHRDHQVAALSE [C4R]: -0.647 ± 0.086.
GLMCLEHEDEKVPMYCVTDDQLICALCKLVGRHRDHQVAALSE [N13P]: the abundance fitness is -0.567 ± 0.28.
Same read-out and setting: in the case of GLMCLEHEDEKVNMYCVTDDQLICALCKLVGRHRNHQVAALSE [D35N] it was -0.114 ± 0.3.
With GLMCLEHEDEKVNMYCVTDDQLICALCKLVGRHRSHQVAALSE [D35S], the abundance fitness was -0.189 ± 0.065.
On the same count and under the same terms, in the case of GLMCLEHEDEKVNMYCVTDDQLIYALCKLVGRHRDHQVAALSE [C24Y] it was -0.364 ± 0.31.
